{"source": "patent US20170290929A1", "about": "“GRP78 TARGETED CONJUGATES” (University of Iowa Research Foundation, priority 2014, published 2017)", "origin": "cited, not measured here", "target": "GRP78 (Homo sapiens, UniProt P11021)", "sequence (P11021 19-654, species assumed)": "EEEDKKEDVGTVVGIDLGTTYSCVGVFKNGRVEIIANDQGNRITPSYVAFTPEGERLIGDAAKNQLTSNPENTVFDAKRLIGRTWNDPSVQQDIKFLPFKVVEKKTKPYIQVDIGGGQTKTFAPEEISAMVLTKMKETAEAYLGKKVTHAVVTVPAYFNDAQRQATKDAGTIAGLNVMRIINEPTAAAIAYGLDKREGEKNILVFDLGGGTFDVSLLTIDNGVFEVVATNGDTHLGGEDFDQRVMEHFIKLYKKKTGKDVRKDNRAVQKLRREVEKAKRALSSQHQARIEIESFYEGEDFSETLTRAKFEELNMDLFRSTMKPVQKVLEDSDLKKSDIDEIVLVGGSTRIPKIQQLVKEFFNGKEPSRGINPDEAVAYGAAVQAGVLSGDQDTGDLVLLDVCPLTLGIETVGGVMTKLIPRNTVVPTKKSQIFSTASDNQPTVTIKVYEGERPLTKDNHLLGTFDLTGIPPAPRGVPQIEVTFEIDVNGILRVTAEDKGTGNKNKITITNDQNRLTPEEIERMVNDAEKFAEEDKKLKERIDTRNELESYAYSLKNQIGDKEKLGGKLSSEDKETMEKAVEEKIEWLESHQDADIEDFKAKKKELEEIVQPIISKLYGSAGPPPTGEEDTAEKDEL", "details": "cell free binding assays", "note": "Ends that are not written are not given here."}
{"substance": "PEP42: 13-mer cyclic peptide, amino acid sequence CTVALPGGYVRKC (SEQ ID NO:1) (also: cyclic)", "values": [{"measurement": "binding with GRP78", "value": "shown to bind with GRP78"}]}
